Experimental data as given in patent US20250179173A1 (IMMUNE ONC THERAPEUTICS, published 2025).

Assays:
[1] = target: T1, human LILRB4 (human, UniProt Q8NHJ6 22-259, limits assumed); assay: 'Affinity to human LILRB4'; method not stated in the example
T1 construct: also called ILT3; LIR5

[2] = target: T1, human LILRB4; assay: blocking of Fibronectin binding to LILRB4; method not stated in the example
[3] = target: T1, human LILRB4; assay: blocking of APOE binding to LILRB4; method not stated in the example

B1: anti-LILRB4 antibody H7K3m5 (antibody, IgG1, V domains shown)
VH: EVQLVESGGGLVQPGGSLRLSCAASGFSLSSSYWISWVRQAPGKGLEWIGSIDSGSVGITYYATWVKGRFTISRDNSKNTLYLQMNSLRAEDTAVYYCARHGDNWALDLWGQGTLVTVSS
VL: DIQMTQSPSTLSASVGDRVTITCRASQSISSWLAWYQQKPGKAPKLLIYKASTLASGVPSRFSGSGSGTEFTLTISSLQPDDFATYYCQHGYIRGDLDNVFGGGTKVEIK
With B1 the Kd [1] was 0.5 nM, the IC50 [2] was 0.78 nM and the IC50 [3] was 0.18 nM.
